Consider seven molecules from patent US20250186614A1, “COMPACT DRUG RESPONSIVE DOMAINS FOR REGULATION OF FUNCTION/ABUNDANCE AND DELIVERY OF POLYPEPTIDE PAYLOADS” (OBSIDIAN THERAPEUTICS, INC., priority 2022, published 2025).

This test in a line: Example 4: dose response of FKBP constructs 160-255, Ec50, Ec90 and fold change (raw and normalized to mCherry). Format: cell-based. Conditions: for FC (fold change): fold change during initial analysis. The protocol: Additional experiments were performed for constructs FKBP-160-292.
[1] abbreviates: FKBP constructs 160-255, not normalized, read-out: EC90.
Setting [2] is: normalized to mCherry, read-out: EC90 (Norm).

Read-outs that look alike come from different tables or passages of the source.

B1: FKBP-233: FKBP13 DRD-AcGFP construct of Table 10 (protein)
chain: HCPIKSRKGDVLHMHYTGKLEDGTEFDSSLPRNQPFVFSLGTGEVIKGWTQGLLGMCEGEKRKLVIPSELGYGERGWPPKIPGGATLVFEVELLKIER
modifications: Description of sequence: Construct Name: FKBP-233; Mutation(s): Q72R Q84E A117W DRD D90T
Turning to B1, the “FC (fold change)” value is 47.2. Further, under setting [1], the EC90 was determined as 272 nM. In addition, the 90% effect concentration (EC90) under setting [2] was found to be 335 nM.

B2: FKBP-238 (protein)
chain: HCPIKSRKGDVLHAHYTGKLEDGTEFDSSLPRNQPFVFSLGTGERIKGWDQGLLGMCEGEKRKLVIPSELGYNERGWPPKIPGGATLVFEVELLKIER
modifications: Description of sequence: Construct Name: FKBP-238; Mutation(s): Q72R Q84E A117W V85R DRD G113N M54A
As to B2, the “FC (fold change)” value is listed as 26.8. Also, the EC90 under setting [1] worked out at 846 nM. Further, the EC90 under setting [2] worked out at 863 nM.

B3: FKBP-237 (protein)
chain: HCPIKSRKGDVLHMHYTGKLEDGTEFDSSLPRNQPFVFSLGTGERIKGWDQGLLGMCEGEKRKLVIPSELGYNERGWPPKIPGGATLVFEVELLKIER
modifications: Description of sequence: Construct Name: FKBP-237; Mutation(s): Q72R Q84E A117W V85R DRD G113N
Regarding B3, the “FC (fold change)” value is reported as 24.1. Moreover, the EC90 under setting [1] was found to be 550 nM. The EC90 under setting [2] was determined as 484 nM.

B4: FKBP-234 (protein)
chain: HCPIKSRKGDVLHMHYTGKLEDGTEFDSSLPRNQPFVFSLGTGERIKGWTQGLLGMCEGEKRKLVIPSELGYGERGWPPKIPGGATLVFEVELLKIER
modifications: Description of sequence: Construct Name: FKBP-234; Mutation(s): Q72R Q84E A117W V85R DRD D90T
With B4, the “FC (fold change)” value stood at 23.5. The concentration for an effect of 90% (EC90) under setting [1] is 8760 nM. Moreover, the EC90 under setting [2] was 12100 nM.

B5: FKBP-235 (protein)
chain: HCPIKSRKGDVLHAHYTGKLEDGTEFDSSLPRNQPFVFSLGTGERIKGWTQGLLGMCEGEKRKLVIPSELGYGERGWPPKIPGGATLVFEVELLKIER
modifications: Description of sequence: Construct Name: FKBP-235; Mutation(s): Q72R Q84E A117W V85R DRD D90T M54A
For B5, the “FC (fold change)” value was found to be 23.5. In addition, the EC90 under setting [1] turned out to be 9980 nM. Also, the 90% effect concentration (EC90) under setting [2] was determined as 11100 nM.

B6: FKBP-236 (protein)
chain: HCPIKSRKGDVLHMHYTGKLEDGTEFDSSLPRNQPFVFSLGTGEVIKGWDQGLLGMCEGEKRKLVIPSELGYNERGWPPKIPGGATLVFEVELLKIER
modifications: Description of sequence: Construct Name: FKBP-236; Mutation(s): Q72R Q84E A117W DRD G113N
In the case of B6, the “FC (fold change)” value amounted to 39.1. Further, the EC90 under setting [1] is 1810 nM. Moreover, the concentration for an effect of 90% (EC90) under setting [2] amounted to 1960 nM.

B7: FKBP-165 (protein)
chain: HCPIKSRKGDVLHAHYTGKLEDGTEFDSSLPRNQPFVFSLGTGERIKGWDQGLLGMCEGEKRKLVIPSELGYGERGWPVKIPGGATLVFEVELLKIER
modifications: Description of sequence: Construct Name: FKBP-165; Mutation(s): Q72R Q84E A117W DRD M54A P119V V85R
Take B7: the “FC (fold change)” value was found to be 47.6. Under setting [1], the EC90 stood at 970 nM. Besides, the EC90 under setting [2] is 984 nM.

The EC90 is the point of the concentration-response curve where the effect stands at 90%.
